Test results taken from US7422862B2, “Methods for identifying modulators of apoptosis” (The Burnham Institute, priority 2001, dated 2008).

Experiments:
RFP-Bax = biological target: T1, RFP-Bax (Homo sapiens, UniProt Q07812); assay: Cellular co-localization in Cos-7 cells (confocal microscope); assay type: cell-based
T1 construct: expressed in transfected cells; host or cells: Cos-7
Text: GFP-HN and a Red Fluorecence Protein (RFP) vector, RFP-Bax, were transfected into Cos-7 cells. The intracellular localization of the expressed polypeptides was examined using a confocal microscope. […] GFP-HN localized to punctate intracellular membranes and when GFP-HN and RFP-Bax were co-expressed, the two polypeptides co-localized to intracellular membranes (data not shown).

endogenous Bax protein = assay: Subcellular fractionation and immunoblot of endogenous Bax after STS; assay type: cell-based; details: Cos7 cells, untagged peptides, STS
Experimental: (A-B) Humanin peptide prevents STS-induced Bax translocation in vivo. Cos-7 cells were first transfected with GFP-Bax plasmids. After 24 hrs, untagged wild-type or C8P mutant Humanin peptides were introduced into cells using ChariotTM reagent, and 2 h later cells were treated with 1 μM STS. After 4 h, the percentage of cells with translocated Bax was determined (mean±SD; n=3) by confocal microscopy (A) and representative photomicrographs (B). (C) Wild-type or C8P mutant Humanin peptides were introduced into Cos7 cells using ChariotTM reagent. Cytosolic (C) and mitochondria-containing (M) fractions were isolated by differential centrifugation 23 and analyzed by immunoblotting using anti-Bax (top), Hsp60 (middle) (mitochondrial marker), or Tubulin (bottom) (cytosol marker) antibodies. (D) HN or mutant control double-strand siRNAs were transfected into SF268 cells. After 48 h, cells were cultured without (Control) or with 0.1 uM STS. After 24 hr, cells were fractionated and analyzed by immunoblotting as above. […] After 3 h at 30° C., mitochondria were centrifuged and the resulting pellets (P) and supernatants (S) were analyzed by immunoblotting using anti-Cytochrome c (top), Hsp60 (middle), and Bax (bottom) antibodies. […]
These findings were also confirmed by subcellular fractionation, where cytosol and mitochondria-enriched heavy membrane preparations were prepared from Cos7 cells transduced with untagged Humanin or Humanin(C8P) peptides, and the relative amounts of endogenous Bax protein in these two fractions were measured by immunoblot analysis of samples normalized for cell-equivalents. […] Differences in the relative potency of Humanin at blocking Bax translocation as measured by microscopy (FIG. 7A) versus cell fractionation methods (FIG. 7C) can be explained by differences in the sensitivity of the assays, or could possibly indicate that even in cells where some Bax translocation has occurred, less of the total Bax protein associated with mitochondria. […]

t-Bid = biological target: T2, t-Bid (Homo sapiens, UniProt P55957); assay: Co-immunoprecipitation of Humanin with t-Bid in 293T cells; assay type: binding; parameters: expressed in transfected cells
T2 sequence (P55957 61-195 limits assumed): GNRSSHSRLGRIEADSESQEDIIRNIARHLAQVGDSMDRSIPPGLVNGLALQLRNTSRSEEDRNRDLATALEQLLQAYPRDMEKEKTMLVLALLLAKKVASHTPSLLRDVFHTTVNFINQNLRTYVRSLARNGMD
Experimental: The lysates were immunoprecipitated with (A) anti-GFP antibody or (B) anti-tBid antibody and blotted with (A) anti-HA antibody or (B) anti-GFP antibody. The data shown were obtained using the cytosolic form of Humanin; however, both cytosolic and mitochondrial forms of Humanin were tested and the results were the same.
The following experiments confirm an interaction between Humanin and Bax. Similar experiments were performed to confirm an interaction between Humanin and Bid.

Bax = assay: Bax-induced lethality in yeast; assay type: cell-based, S. cerevisiae; details: TAD-fusion polypeptide, galactose-induced Bax
BaxΔTM = biological target: T3, BaxΔTM (Homo sapiens, UniProt Q07812); assay: Co-immunoprecipitation of BaxΔTM with GFP-TM(Bax); assay type: binding; details: lysates pre-incubated with peptide
T3 construct: a C-terminally truncated Bax protein (residues 1-169) (BaxΔTM); expressed in transfected cells; host or cells: HEK293T (lysates mixed in vitro)
Experimental: (A-B) Humanin peptide prevents STS-induced Bax translocation in vivo. Cos-7 cells were first transfected with GFP-Bax plasmids. After 24 hrs, untagged wild-type or C8P mutant Humanin peptides were introduced into cells using ChariotTM reagent, and 2 h later cells were treated with 1 μM STS. After 4 h, the percentage of cells with translocated Bax was determined (mean±SD; n=3) by confocal microscopy (A) and representative photomicrographs (B). (C) Wild-type or C8P mutant Humanin peptides were introduced into Cos7 cells using ChariotTM reagent. Cytosolic (C) and mitochondria-containing (M) fractions were isolated by differential centrifugation 23 and analyzed by immunoblotting using anti-Bax (top), Hsp60 (middle) (mitochondrial marker), or Tubulin (bottom) (cytosol marker) antibodies. (D) HN or mutant control double-strand siRNAs were transfected into SF268 cells. After 48 h, cells were cultured without (Control) or with 0.1 uM STS. After 24 hr, cells were fractionated and analyzed by immunoblotting as above. (E) Isolated mitochondria were mixed with 400 ng Bax protein, with or without preincubating Bax with 100 uM Humanin or Humanin(C8P) peptides for 10 min. After 3 h at 30° C., mitochondria were centrifuged and the resulting pellets (P) and supernatants (S) were analyzed by immunoblotting using anti-Cytochrome c (top), Hsp60 (middle), and Bax (bottom) antibodies. […]

T1 sequence (Q07812 whole entry): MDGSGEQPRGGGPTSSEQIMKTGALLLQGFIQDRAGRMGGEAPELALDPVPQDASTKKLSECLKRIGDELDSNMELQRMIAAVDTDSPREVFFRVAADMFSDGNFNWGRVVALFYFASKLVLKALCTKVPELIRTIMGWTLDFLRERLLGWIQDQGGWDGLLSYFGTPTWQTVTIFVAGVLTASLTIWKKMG
T3 sequence (Q07812 1-169, stated change not applied): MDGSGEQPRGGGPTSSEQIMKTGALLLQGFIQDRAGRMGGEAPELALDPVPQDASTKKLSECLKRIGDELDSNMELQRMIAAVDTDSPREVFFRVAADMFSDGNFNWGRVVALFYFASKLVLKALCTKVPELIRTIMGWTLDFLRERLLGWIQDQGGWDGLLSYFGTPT
T3 sequence (Q07812 170-192 partner limits assumed): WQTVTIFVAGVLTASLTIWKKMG

Row | co-localization with RFP-Bax (RFP-Bax) | Substance | Bax translocation by subcellular fractionation (endogenous Bax protein) | interaction with t-Bid by co-immunoprecipitation (t-Bid) | rescue of yeast from Bax-induced lethality (Bax) | interaction of BaxΔTM with GFP-TM (BaxΔTM)
1 | co-localized | GFP-HN: Wild-type full-length Humanin fused to Green Fluorescent Protein | – | – | – | –
2 | – | Humanin: 24 amino acid polypeptide, cytosolic form of human Humanin (SEQ ID NO:2); used as synthetic peptide or expressed fusion | reduced | found to interact | rescued | immunoprecipitated
